Experimental data from publication PMC13083928, “ALS mutations disrupt self-association between the ubiquilin STI1 hydrophobic groove and internal placeholder sequences” (The EMBO Journal, 2026).

B1: variant of the VAMP2 TMD, as it stands in the crystallization construct (peptide)
peptide: MMIALGVACAIALAIAAVYF
notes: variant of the VAMP2 TMD; Written as a molecule of its own because it is joined with the STI1 domain on one chain for the structure; in the experiment it was part of m1; source: part of the STI1-FrzS-TMD fusion; E. coli BL21 DE3 pRIL, purified (Ni-NTA, SEC)

Experiments:
[1] = molecular target: 3xHA-Sec61β soluble domain-Omp25 TMD-3F4 (single substrate); details: 3 μM recombinant 3xFLAG-UBQLN2 variants; parent: est. 49; read off a plot
[2] = molecular target: the molecule itself; assay: crystal structure; STI1-FrzS-TMD fusion construct; hanging-drop vapor diffusion at 4 °C, 2.5% MPD, 100 mM Tris pH 8.5; 1.98 Å

Row | Molecule | response (Elution / Input) [1] | binding result [2]
1 | 3xFLAG-UBQLN2 (wild type), recombinant (from UniProt Q9UHD9) M446R | 57 | 
2 | 3xFLAG-UBQLN2 (wild type), recombinant (from UniProt Q9UHD9) P440L | 54 | 
3 | B1 |  | binds
